From US20210355194A1 (TWIST BIOSCIENCE, published 2021)
Like-named read-outs stand apart in the source and are kept apart here.

Assays:
human ACE2 = human ACE2 (human, UniProt Q9BYF1 18-740)
[1] = biological target: T1, Acro SARS-CoV-2 (COVID-19) S1 protein (SARS-CoV-2, UniProt P0DTC2 16-685); assay: SPR
T1 construct: also called SARS-CoV-2 S1

[2] = biological target: SARS-COV2-S1 RBD (mouse IgG2Fc tag) (SARS-CoV-2, UniProt P0DTC2 319-537); assay: FACS, S1 RBD-mFc on Vero E6 (ACE2)
[3] = biological target: T2, Acro SARS-CoV-2 (COVID-19) S1 protein (SARS-CoV-2, UniProt P0DTC2 16-685); assay: SPR; remark: listed apart in the source
T2 construct: also called SARS-CoV-2 S1

[4] = biological target: T3, SARS-COV2-S1 RBD (mouse IgG2Fc tag) (SARS-CoV-2, UniProt P0DTC2 319-537); assay: FACS, blocks S1 RBD-mFc binding to ACE2 on Vero E6
[5] = biological target: T3, SARS-COV2-S1 RBD (mouse IgG2Fc tag); assay: column not explained; likely FACS, S1 RBD on Vero E6
[6] = biological target: T3, SARS-COV2-S1 RBD (mouse IgG2Fc tag)
[7] = biological target: SARS-CoV-2 spike on live SARS-CoV-2 virus (SARS-CoV-2, UniProt P0DTC2 14-1273); assay: cell-based or functional assay

Sequence of human ACE2 (Q9BYF1 18-740 limits assumed): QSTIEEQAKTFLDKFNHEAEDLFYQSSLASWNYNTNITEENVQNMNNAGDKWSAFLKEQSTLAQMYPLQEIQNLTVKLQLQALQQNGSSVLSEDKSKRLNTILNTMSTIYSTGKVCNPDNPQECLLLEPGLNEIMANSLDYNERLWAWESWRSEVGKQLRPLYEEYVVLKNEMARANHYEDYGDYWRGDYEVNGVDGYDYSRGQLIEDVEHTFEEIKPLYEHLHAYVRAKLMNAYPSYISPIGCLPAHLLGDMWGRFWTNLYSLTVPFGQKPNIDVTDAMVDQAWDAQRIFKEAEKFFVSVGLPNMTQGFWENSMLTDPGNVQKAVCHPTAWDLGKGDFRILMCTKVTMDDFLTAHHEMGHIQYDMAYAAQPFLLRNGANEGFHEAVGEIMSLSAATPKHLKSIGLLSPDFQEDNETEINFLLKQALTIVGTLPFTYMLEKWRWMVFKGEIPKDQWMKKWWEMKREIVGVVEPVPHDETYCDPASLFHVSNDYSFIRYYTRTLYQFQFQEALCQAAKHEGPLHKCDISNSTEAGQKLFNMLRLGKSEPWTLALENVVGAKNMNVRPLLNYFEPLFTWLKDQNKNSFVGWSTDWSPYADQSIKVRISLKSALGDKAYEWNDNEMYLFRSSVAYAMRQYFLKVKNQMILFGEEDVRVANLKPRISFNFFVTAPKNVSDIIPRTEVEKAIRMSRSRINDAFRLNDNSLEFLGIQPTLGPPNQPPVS

B1: 4-121 (VHH)
VHH: EVQLVESGGGLVQPGGSLRLSCAASGTAASFNPMGWFRQAPGKEREFVAAITSGGSTNYADSVKGRFTISADNSKNTAYLQMNSLKPEDTAVYYCAAIAYEEGVYRWDWGQGTLVTVSS
Human ACE2
  IC50: 0.91 nM

B2: variant 6-55 (Fc fusion)
VHH: EVQLVESGGGLVQPGGSLRLSCAASGFTMSSSWMGWFRQAPGKEREFVARITSGGSTGYADSVKGRFTISADNSKNTAYLQMNSLKPEDTAVYYCASVDGYFDYWGQGTLVTVSS
notes: VHH-Fc
[1]
  Kd: 25.2 nM
[2]
  Competition Factor: 7.98

B3: variant 6-55 (Fc fusion)
VHH: B2 VHH
[3]
  Kd: 25.2 nM
[4]
  IC50: 0.97 nM
[5]
  MFI Fold Decrease: 7.98 fold

B4: 4-49 (VHH)
VHH: EVQLVESGGGLVQPGGSLRLSCAASGRTFGDYIMGWFRQAPGKERESVAAINWSAGYTAYADSVKGRFTISADNSKNTAYLQMNSLKPEDTAVYYCARASPNTGWHFDHWGQGTLVTVSS
Human ACE2
  IC50: 58 nM

B5: variant 5-29 (Fc fusion)
VHH: EVQLVESGGGLVQPGGSLRLSCAASGFTFDDYPMGWFRQAPGKEREGVASVLRGGYTWYADSVKGRFTISADNSKNTAYLQMNSLKPEDTAVYYCAKDWATGLAWGQGTLVTVSS
[6]
  IC50: 2.19 nM

B6: variant 5-55 (Fc fusion)
VHH: EVQLVESGGGLVQPGGSLRLSCAASGIDVNRNAMGWFRQAPGKEREFVAAITWSGGWRYYADSVKGRFTISADNSKNTAYLQMNSLKPEDTAVYYCATTFGDAGIPDQYDFGWGQGTLVTVSS
[6]
  IC50: 1.45 nM

B7: variant 6-60 (Fc fusion)
VHH: EVQLVESGGGLVQPGGSLRLSCAASGDTYGSYWMGWFRQAPGKEREFVATISQSGAATAYADSVKGRFTISADNSKNTAYLQMNSLKPEDTAVYYCAGLLRYSGTYYDAFDVWGQGTLVTVSS
notes: VHH-Fc
[1]
  Kd: 20.1 nM
[2]
  Competition Factor: 12.6

B8: variant 6-60 (Fc fusion)
VHH: B7 VHH
[3]
  Kd: 20.1 nM
[4]
  IC50: 1.31 nM
[5]
  MFI Fold Decrease: 12.6 fold

B9: variant 6-76 (Fc fusion)
VHH: EVQLVESGGGLVQPGGSLRLSCAASGLAFDFDGMGWFRQAPGKEREGVAAINSGGSTYYADSVKGRFTISADNSKNTAYLQMNSLKPEDTAVYYCARFFRAHDYWGQGTLVTVSS
notes: VHH-Fc
[1]
  Kd: 33.5 nM
[2]
  Competition Factor: 9.96

B10: variant 6-76 (Fc fusion)
VHH: B9 VHH
[3]
  Kd: 33.5 nM
[4]
  IC50: 1.11 nM
[5]
  MFI Fold Decrease: 9.96 fold

B11: variant 6-26 (Fc fusion)
VHH: EVQLVESGGGLVQPGGSLRLSCAASGDTFSTSWMGWFRQAPGKEREFVATINTGGGTNYADSVKGRFTISADNSKNTAYLQMNSLKPEDTAVYYCARVTTSFDYWGQGTLVTVSS
notes: VHH-Fc
[1]
  Kd: 38.7 nM
[2]
  Competition Factor: 6.41

B12: variant 6-26 (Fc fusion)
VHH: B11 VHH
[3]
  Kd: 38.7 nM
[4]
  IC50: 1.07 nM
[5]
  MFI Fold Decrease: 6.41 fold

B13: variant 5-60 (Fc fusion)
VHH: EVQLVESGGGLVQPGGSLRLSCAASGRSFSSHRMGWFRQAPGKEREFVAAIMWSGSHRNYADSVKGRFTISADNSKNTAYLQMNSLKPEDTAVYYCAAIAYEEGVYRWDWGQGTLVTVSS
[6]
  IC50: 2.15 nM
[3]
  Kd: 29.4 nM

B14: variant 6-20 (Fc fusion)
VHH: EVQLVESGGGLVQPGGSLRLSCAASGSTLPYHAMGWFRQAPGKEREFVAAITWNGASTSYADSVKGRFTISADNSKNTAYLQMNSLKPEDTAVYYCARDRYYDTSASYFESETWGQGTLVTVSS
notes: VHH-Fc
[1]
  Kd: 20.9 nM
[2]
  Competition Factor: 9.95

B15: variant 6-20 (Fc fusion)
VHH: B14 VHH
[3]
  Kd: 20.9 nM
[4]
  IC50: 0.76 nM
[5]
  MFI Fold Decrease: 9.95 fold

B16: variant 5-56 (Fc fusion)
VHH: EVQLVESGGGLVQPGGSLRLSCAASGRTFSSNMGWFRQAPGKEREFVARIFGGDRTLYADSVKGRFTISADNSKNTAYLQMNSLKPEDTAVYYCADINGDWGQGTLVTVSS
[6]
  IC50: 0.68 nM
[3]
  Kd: 54.3 nM
[7]
  EC80: 105 µg/mL

B17: variant 6-73 (Fc fusion)
VHH: EVQLVESGGGLVQPGGSLRLSCAASGHTFSGYAMGWFRQAPGKEREFVAVITREGSTYYADSVKGRFTISADNSKNTAYLQMNSLKPEDTAVYYCARLGGEGFDYWGQGTLVTVSS
notes: VHH-Fc
[1]
  Kd: 103 nM
[2]
  Competition Factor: 7.99

B18: variant 6-73 (Fc fusion)
VHH: B17 VHH
[3]
  Kd: 103 nM
[4]
  IC50: 1.01 nM
[5]
  MFI Fold Decrease: 7.99 fold

B19: variant 6-78 (Fc fusion)
VHH: EVQLVESGGGLVQPGGSLRLSCAASGRTYDAMGWFRQAPGKEREFVASVTSGGYTHYADSVKGRFTISADNSKNTAYLQMNSLKPEDTAVYYCAKFGRKIVGATELDYWGQGTLVTVSS
notes: VHH-Fc
[1]
  Kd: 18.9 nM
[2]
  Competition Factor: 9.27

B20: variant 6-78 (Fc fusion)
VHH: B19 VHH
[3]
  Kd: 18.9 nM
[4]
  IC50: 0.743 nM
[5]
  MFI Fold Decrease: 9.27 fold

B21: variant 5-15 (Fc fusion)
VHH: EVQLVESGGGLVQPGGSLRLSCAASGFTFDGAAMGWFRQAPGKEREFVATIRWTNSTDYADSVKGRFTISADNSKNTAYLQMNSLKPEDTAVYYCARGRYGIVERWGQGTLVTVSS
[6]
  IC50: 2.19 nM

B22: variant 5-67 (Fc fusion)
VHH: EVQLVESGGGLVQPGGSLRLSCAASGFNVNDYAMGWFRQAPGKEREFVAGITSSVGVTNYADSVKGRFTISADNSKNTAYLQMNSLKPEDTAVYYCAADIFFVNWGRGTLVTVSS
[6]
  IC50: 0.76 nM
[3]
  Kd: 22.1 nM
[7]
  EC80: 1.57 µg/mL

B23: 4-52 (VHH)
VHH: EVQLVESGGGLVQPGGSLRLSCAASGRSFSNSVMGWFRQAPGKEREFVARITWNGGSTYYADSVKGRFTISADNSKNTAYLQMNSLKPEDTAVYYCATTENPNPRWGQGTLVTVSS
Human ACE2
  IC50: 0.35 nM

B24: variant 5-47 (Fc fusion)
VHH: EVQLVESGGGLVQPGGSLRLSCAASGFTFGSYDMGWFRQAPGKEREFVTAINWSGARTAYADSVKGRFTISADNSKNTAYLQMNSLKPEDTAVYYCAARSVYSYEYNWGQGTLVTVSS
[6]
  IC50: 0.8 nM
[3]
  Kd: 27.7 nM
[7]
  EC80: 2.46 µg/mL

B25: variant 5-49 (Fc fusion)
VHH: EVQLVESGGGLVQPGGSLRLSCAASGRTSTVNGMGWFRQAPGKEREFVASISQSGAATAYADSVKGRFTISADNSKNTAYLQMNSLKPEDTAVYYCAADRTYSYSSTGYYWGQGTLVTVSS
[6]
  IC50: 5.61 nM
